Data taken from patent publication US20220098287A1 (Teva, published 2022).
Where no end group is shown, it is not given here.

Target: T1, antibody G1 Fab fragment
T1 construct: also called TEV-48125; fremanezumab
Assay: SPR (Biacore) competition: 50 nM G1 Fab pre-incubated 1 h with 10 µM competing peptide, then flowed over N-biotinylated human α-CGRP on SA chip
From the text: Y axis represents percentage of binding blocked by the presence of the competing peptide compared with the binding in the absence of the competing peptide.
All these peptides are amidated at the C-terminus.

T1 sequence (VH, as listed by the source, chain 1 of 2): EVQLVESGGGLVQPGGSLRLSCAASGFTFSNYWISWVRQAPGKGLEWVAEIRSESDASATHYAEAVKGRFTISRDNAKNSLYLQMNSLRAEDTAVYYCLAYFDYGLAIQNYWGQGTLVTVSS
T1 sequence (VL, as listed by the source, chain 2 of 2): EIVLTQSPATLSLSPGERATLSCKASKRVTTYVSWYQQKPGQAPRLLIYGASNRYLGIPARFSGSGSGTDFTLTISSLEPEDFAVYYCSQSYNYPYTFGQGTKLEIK

binding result: no binding (tested: 10 µM)
B1: 19-36 CONH2 (peptide)
peptide: SGGVVKNNFVPTNVGSKA-NH2
notes: also called peptide fragment 19-36 (amidated at the C-terminus) of human α-CGRP
